For 1 substance, relative activity of MePMEI1 (loss of PME activity with MePMEI1 against the initial PME activity) results are on record in article PMC9523724.

For the assay, the target named is commercial orange peel PME (pectin methylesterase, Sigma p5400) (orange (peel)).

Turning to “recombinant MePMEI1 protein (pectin methylesterase inhibitor 1 of Manihot esculenta) (natural protein)”, the relative activity of MePMEI1 (loss of PME activity with MePMEI1 against the initial PME activity) at pH 4.5, 5.5, 6.5, 7.5 and 8.5; highest at pH 5.5, falling with rising pH worked out at 31%.
